Reference: publication PMC2860547

Biological target: Snf1 protein tagged with 3 copies of the HA epitope (wild type) (S. cerevisiae) (UniProt P06782)
Experiment: co-IP

Sequence of UniProt P06782 (P06782 whole entry): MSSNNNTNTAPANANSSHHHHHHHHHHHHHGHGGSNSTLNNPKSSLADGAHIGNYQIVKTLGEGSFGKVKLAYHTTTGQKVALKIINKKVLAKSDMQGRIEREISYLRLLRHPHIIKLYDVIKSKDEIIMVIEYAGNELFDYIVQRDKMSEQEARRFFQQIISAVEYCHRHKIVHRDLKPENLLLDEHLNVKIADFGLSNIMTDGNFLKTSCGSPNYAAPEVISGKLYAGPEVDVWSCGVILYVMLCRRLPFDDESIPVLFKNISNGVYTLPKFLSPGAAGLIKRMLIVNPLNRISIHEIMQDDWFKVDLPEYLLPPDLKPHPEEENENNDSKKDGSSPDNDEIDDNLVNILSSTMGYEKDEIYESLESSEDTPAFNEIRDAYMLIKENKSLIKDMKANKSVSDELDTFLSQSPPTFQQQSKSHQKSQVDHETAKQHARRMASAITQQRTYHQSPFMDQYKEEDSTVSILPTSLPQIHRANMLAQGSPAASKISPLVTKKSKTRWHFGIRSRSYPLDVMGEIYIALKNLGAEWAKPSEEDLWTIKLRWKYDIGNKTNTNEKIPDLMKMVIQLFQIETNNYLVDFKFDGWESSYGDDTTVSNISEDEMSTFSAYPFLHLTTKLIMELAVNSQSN

fold reduction of associated Reg1 against wild type Reg1: 30 fold
Substance: Reg1-IF (I466M, F468A) (from UniProt Q00816 1-1014) (natural protein)
